# B1: IL-29: human IL-29 cytokine polypeptide (zcyto21), e.g. SEQ ID NO:20 (protein, listed as Homo sapiens)
# chain: MAAAWTVVLVTLVLGLAVAGPVPTSKPTTTGKGCHIGRFKSLSPQELASFKKARDALEESLKLKNWSCSSPVFPGNWDLRLLQVRERPVALEAELALTLKVLEAAAGPALEDVLDQPLHTLHHILSQLQACIQPQPTAGPRPRGRLHHWLHRLQEAPKKESAGCLEASVTFNLFRLLTRDLKYVADGNLCLRTSTHPEST
# modifications: SIGNAL (1)...(19)
# What was measured:
# [1] = system: EMCV; test: EMCV antiviral assay (MTT dye uptake) in HepG2 cells; type: cell-based, encephalomyocarditis virus; settings: cytokine 24 hours before EMCV challenge
# [2] = system: 293 HEK cells overexpressing zcytor19; test: Inhibition of ligand-induced ISRE-luciferase signaling by soluble receptors; type: cell-based, human; settings: 10 ng/ml ligand, 10 micrograms/ml soluble receptor, 4-hour; relative to PBS alone
# [3] = system: BVDV; test: BVDV inhibition of cytopathic effect assay in MDBK cells; type: cell-based, bovine viral diarrhea virus; settings: MDBK bovine kidney cells, day 7
# Description: The MDBK cells were propagated in Dulbecco's modified essential medium (DMEM) containing phenol red with 10% horse serum, 1% glutamine and 1% penicillin-streptomycin. CPE inhibition assays were performed in DMEM without phenol red with 2% FBS, 1% glutamine and 1% Pen-Strep. On the day preceding the assays, cells were trypsinized (1% trypsin-EDTA), washed, counted and plated out at 10^4 cells/well in a 96-well flat-bottom BioCoat® plates (Fisher Scientific, Pittsburgh, Pa.) in a volume of 100 μl/well. The next day, the medium was removed and a pre-titered aliquot of virus was added to the cells. The amount of virus was the maximum dilution that would yield complete cell killing (>80%) at the time of maximal CPE development (day 7 for BVDV). Cell viability was determined using a CellTiter96® reagent (Promega) according to the manufacturer's protocol, using a Vmax plate reader (Molecular Devices, Sunnyvale, Calif.). Test samples were tested at six concentrations each, diluted in assay medium in a half-log series. IFNα and RIBAVIRIN® were used as positive controls. Test sample were added at the time of viral infection. The average background and sample color-corrected data for percent CPE reduction and percent cell viability at each concentration were determined relative to controls and the IC50 calculated relative to the TC50.
# [4] = system: Parainfluenza virus; type: cell-based
# [5] = system: Rhino 2; type: cell-based, rhino virus; settings: Rhino 2, KB
# [6] = system: Rhino 9; type: cell-based, rhino virus; settings: Rhino 9, HeLa
# [7] = system: Vaccinia virus; type: cell-based; settings: Vero
# [8] = system: Dengue virus; type: cell-based; settings: Vero
# [9] = system: Polio virus; type: cell-based; settings: Vero
# [10] = system: Respiratory syncytial virus; type: cell-based; settings: MA-104 cells, Neutral Red Assay
# [11] = system: Influenza (type A [H3N2]); type: cell-based; settings: Vero cells, Neutral Red Assay
# [12] = system: Vaccinia virus; type: cell-based; settings: Vero cells, Neutral Red Assay
# [13] = system: Pichinde virus; type: cell-based
# [14] = system: Polio virus; type: cell-based; settings: Vero cells, Neutral Red Assay
# [15] = system: spleens of transgenic mice; test: ISG expression in spleens of Eu-lck human IL-29 transgenic mice (real-time PCR); type: in vivo, mouse; settings: spleens of Eu-lck IL-29 transgenic mice; fold expression relative to HPRT; average of two mice
# Description: This promoter is active in T cells and B cells. Transgenic mice and their non-transgenic littermates (n=2/gp) were sacrificed at about 10 weeks of age. Spleens of mice were isolated. RNA was isolated from cell pellets using RNAEasy-kit® (Qiagen). RNA was treated with DNase to clean RNA of any contaminating DNA. cDNA was generated using Perkin-Elmer RT® mix. ISG gene induction was evaluated by real-time PCR using primers and probes (5′ FAM, 3′ NFQ) specific for mouse OAS, Pkr and Mx1. To obtain quantitative data, HPRT real-time PCR was duplexed with ISG PCR. Furthermore, a standard curve was obtained using known amounts of IFN stimulated mouse PBLs. All data are shown as expression relative to internal HPRT expression.
molecule,measurement,setting,value
B1,"EC50 (antiviral activity, OD570)",[1],0.0006 µg/mL
same,Percent Inhibition of Ligand-induced ISRE Signaling by HuCRF2-4-Fc,[2],79%
same,Percent Inhibition of Ligand-induced ISRE Signaling by Huzcytor19-Fc,[2],45%
same,Percent Inhibition of Ligand-induced ISRE Signaling by Huzcytor19-Fc/huCRF2-4-Fc,[2],16%
same,Percent Inhibition of Ligand-induced ISRE Signaling by Muzcytor19-Ig,[2],103%
same,IC50 (inhibition of cell death induced by BVDV),[3],0.19 µg/mL
same,EC50 Visual,[4]; MA-104,>10 µg/mL
same,IC50 Visual,"[4]; MA-104, numerator of SI",>10 µg/mL
same,EC50 Visual,[5],>10 µg/mL
same,IC50 Visual,[5]; numerator of SI,>10 µg/mL
same,EC50 Visual,[6],>10 µg/mL
same,IC50 Visual,[6]; numerator of SI,>10 µg/mL
same,EC50 Visual,[7],>10 µg/mL
same,IC50 Visual,[7]; numerator of SI,>10 µg/mL
same,EC50 Visual,[8],0.032 µg/mL
same,IC50 Visual,[8]; numerator of SI,>10 µg/mL
same,EC50 Visual,[9],>10 µg/mL
same,IC50 Visual,[9]; numerator of SI,>10 µg/mL
same,EC50 NR,[10],>10 µg/mL
same,IC50 NR,[10],>10 µg/mL
same,EC50 NR,[11],2 µg/mL
same,IC50 NR,[11],>10 µg/mL
same,EC50 NR,[12],>10 µg/mL
same,IC50 NR,[12],>10 µg/mL
same,EC50 NR,[13],>10 µg/mL
same,IC50 NR,[13],>10 µg/mL
same,EC50 NR,[14],>10 µg/mL
same,IC50 NR,[14],>10 µg/mL
same,Mx1,[15],21
same,OAS,[15],12
same,PkR,[15],8

# Reference: US20120114590A1 (priority 2005, published 2012)
